From patent publication US20250152743A1, “SYNPOPTOSIS CIRCUITS FOR PROGRAMMABLE CELL DEATH CONTROL” (California Institute of Technology, priority 2023, published 2025)

B1: Caspase3_v2.2: nCasp3-tevs-nHalo-tevs-cHalo-tevs-cCasp3-CAAX; SEQ ID NO: 45 (protein)
chain: MENTENSVDSKSIKNLEPKIIHGSESMDSGISLDNSYKMDYPEMGLCIIINNKNFHKSTGMTSRSGTDVDAANLRETFRNLKYEVRNKNDLTREEIVELMRDVSKEDHSKRSSFVCVLLSHGEEGIIFGTNGPVDLKKITNFFRGDRCRSLTGKPKLFIIQACRGTELDCGIETENLYFQSEIGTGFPFDPHYVEVLGERMHYVDVGPRDGTPVLFLHGNPTSSYVWRNIIPHVAPENLYFQSTHRCIAPDLIGMGKSDKPDLGYFFDDHVRFMDAFIEALGLEEVVLVIHDWGSALGFHWAKRNPERVKGIAFMEFIRPIPTWDEWPEFARETFQAFRTTDVGRKLIIDQNVFIEGTLPMGVVRPLTEVEMDHYREPFLNPVDREPLWRFPNELPIAGEPANIVALVEEYMDWLHQSPVPKLLFWGTPGVLIPPAEAARLAKSLPNCKAVDIGPGLNLLQEDNPDLIGSEIARWLSTLEISENLYFQSGVDDDMACHKIPVEADFLYAYSTAPGYYSWRNSKDGSWFIQSLCAMLKQYADKLEFMHILTRVNRKVATEFESFSFDATFHAKKQIPCIVSMLTKELYFYHSTGGSSGGGGRSKLNPPDESGPGCMSCKCVLS
B2: caspase-3 variant designed to activate in the presence of Input 1 and the absence of Input 2: TEVP-removable degron on small subunit, TVMVP-activatable N-degron on large subunit (SEQ ID NOs: 25, 26) (protein)
chain 1: MGSETVRFQYHKSGAWKLPVSLVKEQLEKKLQALEKKLAQLEWKNQALEKKLAQENTENSVDSKSIKNLEPKIIHGSESMDSGISLDNSYKMDYPEMGLCIIINNKNFHKSTGMTSRSGTDVDAANLRETFRNLKYEVRNKNDLTREEIVELMRDVSKEDHSKRSSFVCVLLSHGEEGIIFGTNGPVDLKKITNFFRGDRCRSLTGKPKLFIIQACRGTELDCGIETD
chain 2: MGSSGVDDDMACHKIPVEADFLYAYSTAPGYYSWRNSKDGSWFIQSLCAMLKQYADKLEFMHILTRVNRKVATEFESFSFDATFHAKKQIPCIVSMLTKELYFYHGGSGALKKELQANKKELAQLKWELQALKKELAQGGSGLENLYFQSGSGSISLIAALAVDYVIGMENAMPWNLPADLAWFKRNTLNKPVIMGRHTWESIGRPLPGRKNIILSSQPSTDDRVTWVKSVDEAIAACGDVPEIMVIGGGRVIEQFLPKAQKLYLTHIDAEVEGDTHFPDYEPDDWESVFSEFHDADAQNSHSYCFEILERR
B3: OR-gated caspase-3: tandem TEVP and TVMVP cleavage sites at the inter-subunit linker of caspase-3; SEQ ID NO: 24 (protein)
chain: MGSENTENSVDSKSIKNLEPKIIHGSESMDSGISLDNSYKMDYPEMGLCIIINNKNFHKSTGMTSRSGTDVDAANLRETFRNLKYEVRNKNDLTREEIVELMRDVSKEDHSKRSSFVCVLLSHGEEGIIFGTNGPVDLKKITNFFRGDRCRSLTGKPKLFIIQACRGTELDCGIETENLYFQSETVRFQSGVDDDMACHKIPVEADFLYAYSTAPGYYSWRNSKDGSWFIQSLCAMLKQYADKLEFMHILTRVNRKVATEFESFSFDATFHAKKQIPCIVSMLTKELYFYH
B4: AND-gated caspase-3: TEVP-activatable caspase-3 fused to a TVMVP-removable degron; SEQ ID NO: 23 (protein)
chain: MGSENTENSVDSKSIKNLEPKIIHGSESMDSGISLDNSYKMDYPEMGLCIIINNKNFHKSTGMTSRSGTDVDAANLRETFRNLKYEVRNKNDLTREEIVELMRDVSKEDHSKRSSFVCVLLSHGEEGIIFGTNGPVDLKKITNFFRGDRCRSLTGKPKLFIIQACRGTELDCGIETENLYFQSGVDDDMACHKIPVEADFLYAYSTAPGYYSWRNSKDGSWFIQSLCAMLKQYADKLEFMHILTRVNRKVATEFESFSFDATFHAKKQIPCIVSMLTKELYFYHGGSGLETVRFQSGSGSISLIAALAVDYVIGMENAMPWNLPADLAWFKRNTLNKPVIMGRHTWESIGRPLPGRKNIILSSQPSTDDRVTWVKSVDEAIAACGDVPEIMVIGGGRVIEQFLPKAQKLYLTHIDAEVEGDTHFPDYEPDDWESVFSEFHDADAQNSHSYCFEILERR
B5: Caspase3_v2.1: nHalo-tevs-Casp3te-tevs-cHalo-CAAX; SEQ ID NO: 44 (protein)
chain: MEIGTGFPFDPHYVEVLGERMHYVDVGPRDGTPVLFLHGNPTSSYVWRNIIPHVAPGSENLYFQSGSENTENSVDSKSIKNLEPKIIHGSESMDSGISLDNSYKMDYPEMGLCIIINNKNFHKSTGMTSRSGTDVDAANLRETFRNLKYEVRNKNDLTREEIVELMRDVSKEDHSKRSSFVCVLLSHGEEGIIFGTNGPVDLKKITNFFRGDRCRSLTGKPKLFIIQACRGTELDCGIETENLYFQSGVDDDMACHKIPVEADFLYAYSTAPGYYSWRNSKDGSWFIQSLCAMLKQYADKLEFMHILTRVNRKVATEFESFSFDATFHAKKQIPCIVSMLTKELYFYHSTGSENLYFQSGSTHRCIAPDLIGMGKSDKPDLGYFFDDHVRFMDAFIEALGLEEVVLVIHDWGSALGFHWAKRNPERVKGIAFMEFIRPIPTWDEWPEFARETFQAFRTTDVGRKLIIDQNVFIEGTLPMGVVRPLTEVEMDHYREPFLNPVDREPLWRFPNELPIAGEPANIVALVEEYMDWLHQSPVPKLLFWGTPGVLIPPAEAARLAKSLPNCKAVDIGPGLNLLQEDNPDLIGSEIARWLSTLEISGGSSGGGGRSKLNPPDESGPGCMSCKCVLS

Experiments:
[1] = Engineered Casp3 variants without input protease and with Ras sensor protease; details: without an input protease
Method: In this experiment, we tested the wild-type TEVP activatable Casp3 protein against the engineered Casp3 variants (v2.1 and v2.2) as described above. Each Casp3 variant was tested without an input protease and with a Ras sensor protease.

[2] = test system: co-culture of engineered HEK cells that stably express Input 1, Input 2, or both, and wildtype cells; assay: Synpoptosis gates in co-culture of four input-state cell lines, Annexin flow cytometry; assay type: cell-based, human; details: Input 1 TEVP (Cherry), Input 2 TVMVP (Citrine)
Method: As a proof of concept for combinatorial targeting, the synpoptosis gates were tested in a co-culture of engineered HEK cells that stably express Input 1, Input 2, or both, and wildtype cells that express neither. Input 1 with Cherry and Input 2 with Citrine were co-expressed, such that the two fluorescent protein profiles represented input patterns (FIG. 4C, Quadrant layout). The co-culture of the four cell lines were then transfected with the synthetic apoptosis gates to analyze their killing specificity. Transfections of no caspase-3 (FIG. 4C, Mock) and active caspase-3 (FIG. 4C, Indiscriminate) were used to establish background and ceiling apoptosis levels, respectively. […] Similar killing specificities were observed when the synthetic pyroptosis gates were transfected into the co-culture (FIG. 4D).
For experiments that required stable transgene expression, stable cell lines were engineered using lentiviruses followed by antibiotic selection, or using the PiggyBac transposase system. […] The next day, the cells were co-transfected using Lipofectamine 2000 with three plasmids, pLVX-M-PURO (Addgene plasmid #125839) containing the gene of interest, the TEVP-activatable Citrine reporter for instance, psPAX2 (Addgene plasmid #12260), and pCMV-VSV-G (Addgene plasmid #8454). We kept the mass ratio of the three plasmids at 9:9:2 (450 ng:450 ng:100 ng). In some experiments involving cells stably expressing two or more transgenes, the lentiviruses were generated using multiple pLVX-M-PURO plasmids carrying different genes of interest. An alternative ratio of pLVX-M-PURO:psPAX2:pCMV-VSV-G was 2:2:1 (2.4 μg:2.4 μg:1.2 μg), which was used to generate lentiviruses for stable integration of IL-1β and IL-18 genes. […] The RasGC line, or HEK293 cells stably expressing human H-Ras G12V mutant along with a Cerulean fluorescence marker, was generated using the PiggyBac method. […] One week later, the cells were sorted based on Cerulean fluorescence to obtain the final RasGC line. […]

Molecule	background (TEVP-independent) cell death / Casp3 activation [1]	background (TEVP-independent) cell death / Casp3 activation ([1]; listed as v2.2)	killing specificity, Annexin staining [2]	background (TEVP-independent) cell death / Casp3 activation ([1]; listed as v2.1)
B1	background Casp3 activation is reduced	reduced to statistically non-significant amounts	–	–
B2	–	–	restricted apoptosis to the corresponding cells	–
B3	–	–	caused apoptosis in single-positive and double-positive cells, sparing only double-negative cells	–
B4	–	–	triggered apoptosis predominantly in double-positive cells	–
B5	making TEVP-independent Casp3 activation less likely	–	–	reduced to statistically non-significant amounts
